Results: publication PMC5340008 (BMC Biochemistry, 2017)

Experiments:
[1] = biological target: Bacillus anthracis Bla1 β-lactamase (Bacillus anthracis)
TEM-1 β-lactamase = TEM-1 β-lactamase (UniProt P62593 24-286); experiment: β-lactamase inhibition assay (nitrocefin hydrolysis, Morrison tight-binding fit); increasing concentrations of BLIP incubated with 1 nM β-lactamase for 1 h at room temperature in 50 mM sodium phosphate pH 7.0; nitrocefin added at its Km, initial velocity at 482 nm; Ki calculated from Ki app; conditions: both partners purified
KPC-2 β-lactamase = KPC-2 β-lactamase (UniProt Q9F663 25-293); experiment: as above; conditions: both partners purified

Row | Molecule | Ki [1] | Ki (TEM-1 β-lactamase) | Ki (KPC-2 β-lactamase)
1 | β-lactamase inhibitory protein (BLIP), wild type (from UniProt P35804 37-201) (natural protein) | 2.5 nM | – | –
2 | BLIP [change] (natural protein) AGVMTGAKFTQIQFGMTRQQVLDIAGAENCETGGSFGDSIHCRGHAAGDQYAYATFGFTSAAADAKVDSKSQEKLLAPSAPTLTLAKFNQVTVGMTRAQVLATVGQGSCTTWSEYYPAYPSTAGVTLSLSCFDVDGYSSTGFYRGSAHLWFTDGVLQGKRQWDLV | – | 0.24 nM | 1 nM
3 | BLIP [change] (natural protein) AGVMTGAKFTQIQFGMTRQQVLDIAGAENCETGGSFGDSIHCRGHAAGDTYAYATFGFTSAAADAKVDSKSQEKLLAPSAPTLTLAKFNQVTVGMTRAQVLATVGQGSCTTWSEYYPAYPSTAGVTLSLSCFDVDGYSSTGFYRGSAHLWFTDGVLQGKRQWDLV | – | 2.5 nM | 3.5 nM
4 | BLIP [change] (natural protein) AGVMTGAKFTQIQFGMTRQQVLDIAGAENCETGGSFGDSIHCRGHAAGDFYAYATFGFTSAAADAKVDSKSQEKLLAPSAPTLTLAKFNQVTVGMTRAQVLATVGQGSCTTWSEYYPAYPSTAGVTLSLSCFDVDGYSSTGFYRGSAHLWFTDGVLQGKRQWDLV | – | 10.3 nM | 15 nM
5 | BLIP [change] (natural protein) AGVMTGAKFTQIQFGMTRQQVLDIAGAENCETGGSFGDSIHCRGHAAGDHYAYATFGFTSAAADAKVDSKSQEKLLAPSAPTLTLAKFNQVTVGMTRAQVLATVGQGSCTTWSEYYPAYPSTAGVTLSLSCFDVDGYSSTGFYRGSAHLWFTDGVLQGKRQWDLV | – | 5 nM | 1.4 nM
6 | BLIP [change] (natural protein) AGVMTGAKFTQIQFGMTRQQVLDIAGAENCETGGSFGDSIHCRGHAAGDNYAYATFGFTSAAADAKVDSKSQEKLLAPSAPTLTLAKFNQVTVGMTRAQVLATVGQGSCTTWSEYYPAYPSTAGVTLSLSCFDVDGYSSTGFYRGSAHLWFTDGVLQGKRQWDLV | – | 7.8 nM | 3.8 nM
7 | BLIP [change] (natural protein) AGVMTGAKFTQIQFGMTRQQVLDIAGAENCETGGSFGDSIHCRGHAAGDDYAYATFGFTSAAADAKVDSKSQEKLLAPSAPTLTLAKFNQVTVGMTRAQVLATVGQGSCTTWSEYYPAYPSTAGVTLSLSCFDVDGYSSTGFYRGSAHLWFTDGVLQGKRQWDLV | – | 160 nM | 3.2 nM
8 | BLIP [change] (natural protein) AGVMTGAKFTQIQFGMTRQQVLDIAGAENCETGGSFGDSIHCRGHAAGDKYAYATFGFTSAAADAKVDSKSQEKLLAPSAPTLTLAKFNQVTVGMTRAQVLATVGQGSCTTWSEYYPAYPSTAGVTLSLSCFDVDGYSSTGFYRGSAHLWFTDGVLQGKRQWDLV | – | 195 nM | 260 nM
9 | BLIP [change] (natural protein) AGVMTGAKFTQIQFGMTRQQVLDIAGAENCETGGSFGDSIHCRGHAAGDLYAYATFGFTSAAADAKVDSKSQEKLLAPSAPTLTLAKFNQVTVGMTRAQVLATVGQGSCTTWSEYYPAYPSTAGVTLSLSCFDVDGYSSTGFYRGSAHLWFTDGVLQGKRQWDLV | – | 0.17 nM | 0.7 nM
10 | BLIP [change] (natural protein) AGVMTGAKFTQIQFGMTRQQVLDIAGAENCETGGSFGDSIHCRGHAAGDCYAYATFGFTSAAADAKVDSKSQEKLLAPSAPTLTLAKFNQVTVGMTRAQVLATVGQGSCTTWSEYYPAYPSTAGVTLSLSCFDVDGYSSTGFYRGSAHLWFTDGVLQGKRQWDLV | – | 60 nM | 42 nM
11 | BLIP [change] (natural protein) AGVMTGAKFTQIQFGMTRQQVLDIAGAENCETGGSFGDSIHCRGHAAGDSYAYATFGFTSAAADAKVDSKSQEKLLAPSAPTLTLAKFNQVTVGMTRAQVLATVGQGSCTTWSEYYPAYPSTAGVTLSLSCFDVDGYSSTGFYRGSAHLWFTDGVLQGKRQWDLV | – | 1.1 nM | 5 nM
12 | BLIP [change] (natural protein) AGVMTGAKFTQIQFGMTRQQVLDIAGAENCETGGSFGDSIHCRGHAAGDRYAYATFGFTSAAADAKVDSKSQEKLLAPSAPTLTLAKFNQVTVGMTRAQVLATVGQGSCTTWSEYYPAYPSTAGVTLSLSCFDVDGYSSTGFYRGSAHLWFTDGVLQGKRQWDLV | – | 69 nM | 11 nM
13 | BLIP [change] (natural protein) AGVMTGAKFTQIQFGMTRQQVLDIAGAENCETGGSFGDSIHCRGHAAGDMYAYATFGFTSAAADAKVDSKSQEKLLAPSAPTLTLAKFNQVTVGMTRAQVLATVGQGSCTTWSEYYPAYPSTAGVTLSLSCFDVDGYSSTGFYRGSAHLWFTDGVLQGKRQWDLV | – | 0.11 nM | 0.5 nM
14 | BLIP [change] (natural protein) AGVMTGAKFTQIQFGMTRQQVLDIAGAENCETGGSFGDSIHCRGHAAGDVYAYATFGFTSAAADAKVDSKSQEKLLAPSAPTLTLAKFNQVTVGMTRAQVLATVGQGSCTTWSEYYPAYPSTAGVTLSLSCFDVDGYSSTGFYRGSAHLWFTDGVLQGKRQWDLV | – | 3.5 nM | 10 nM
15 | BLIP [change] (natural protein) AGVMTGAKFTQIQFGMTRQQVLDIAGAENCETGGSFGDSIHCRGHAAGDPYAYATFGFTSAAADAKVDSKSQEKLLAPSAPTLTLAKFNQVTVGMTRAQVLATVGQGSCTTWSEYYPAYPSTAGVTLSLSCFDVDGYSSTGFYRGSAHLWFTDGVLQGKRQWDLV | – | 40 nM | 5 nM
16 | BLIP [change] (natural protein) AGVMTGAKFTQIQFGMTRQQVLDIAGAENCETGGSFGDSIHCRGHAAGDWYAYATFGFTSAAADAKVDSKSQEKLLAPSAPTLTLAKFNQVTVGMTRAQVLATVGQGSCTTWSEYYPAYPSTAGVTLSLSCFDVDGYSSTGFYRGSAHLWFTDGVLQGKRQWDLV | – | 11 nM | 1.1 nM
17 | BLIP [change] (natural protein) AGVMTGAKFTQIQFGMTRQQVLDIAGAENCETGGSFGDSIHCRGHAAGDAYAYATFGFTSAAADAKVDSKSQEKLLAPSAPTLTLAKFNQVTVGMTRAQVLATVGQGSCTTWSEYYPAYPSTAGVTLSLSCFDVDGYSSTGFYRGSAHLWFTDGVLQGKRQWDLV | – | – | 1.9 nM
18 | BLIP [change] (natural protein) AGVMTGAKFTQIQFGMTRQQVLDIAGAENCETGGSFGDSIHCRGHAAGDEYAYATFGFTSAAADAKVDSKSQEKLLAPSAPTLTLAKFNQVTVGMTRAQVLATVGQGSCTTWSEYYPAYPSTAGVTLSLSCFDVDGYSSTGFYRGSAHLWFTDGVLQGKRQWDLV | – | 76 nM | 5.5 nM
19 | BLIP [change] (natural protein) AGVMTGAKFTQIQFGMTRQQVLDIAGAENCETGGSFGDSIHCRGHAAGDGYAYATFGFTSAAADAKVDSKSQEKLLAPSAPTLTLAKFNQVTVGMTRAQVLATVGQGSCTTWSEYYPAYPSTAGVTLSLSCFDVDGYSSTGFYRGSAHLWFTDGVLQGKRQWDLV | – | 0.4 nM | 0.72 nM
